The supplement of paper PMC9112550, “Optimization of the antimicrobial peptide Bac7 by deep mutational scanning” (BMC Biology, 2022)
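Further: peptides expressed intracellularly from a pBAD plasmid library in pooled LB shake-flask culture, induced with 0.3% L-arabinose, DNA abundance read by NGS, three biological replicates, DESeq2 with apeglm shrinkage.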

These sequences were tested on Escherichia coli TOP10 (assay: shrunken log2 fold change of peptide-encoding DNA abundance (4.5 h post-induction vs induction); higher = less antimicrobial activity (less host growth inhibition)). Settings: time post-induction: 4.5 h; library: site-saturation at positions 5, 18, 19, 20.
In the case of RRIRPRPPRLPRPRPRPVARPRP, the “shrunken log2 fold change” value is reported as 0.245. In the case of RRIRTRPPRLPRPRPRPNWFPRP, the “shrunken log2 fold change” value is reported as -0.157. In the case of RRIRHRPPRLPRPRPRPYTIPRP, the “shrunken log2 fold change” value is reported as -0.0416. RRIRWRPPRLPRPRPRPFHRPRP was tested, and the “shrunken log2 fold change” value was -0.2. For RRIRPRPPRLPRPRPRPDMIPRP, the “shrunken log2 fold change” value was 0.249. For RRIRARPPRLPRPRPRPMVRPRP, the “shrunken log2 fold change” value was 0.348. With RRIRLRPPRLPRPRPRPFYVPRP the “shrunken log2 fold change” value was -0.5. For RRIRTRPPRLPRPRPRPMCSPRP, the “shrunken log2 fold change” value was -0.0861. RRIRHRPPRLPRPRPRPWCDPRP was tested, and the “shrunken log2 fold change” value was -0.559. With RRIRDRPPRLPRPRPRPFRFPRP the “shrunken log2 fold change” value was -0.0342. With RRIRGRPPRLPRPRPRPNTVPRP the “shrunken log2 fold change” value was -0.0703. With RRIRCRPPRLPRPRPRPCYVPRP the “shrunken log2 fold change” value was -1.08. For RRIRRRPPRLPRPRPRPYKWPRP, the “shrunken log2 fold change” value was -0.138. RRIRDRPPRLPRPRPRPDDCPRP was tested, and the “shrunken log2 fold change” value was -0.00963. For RRIRGRPPRLPRPRPRPKGIPRP, the “shrunken log2 fold change” value was 0.529. With RRIRRRPPRLPRPRPRPLKQPRP the “shrunken log2 fold change” value was 0.223. RRIRGRPPRLPRPRPRPMHIPRP was tested, and the “shrunken log2 fold change” value was 1.77. RRIRHRPPRLPRPRPRPYRLPRP was tested, and the “shrunken log2 fold change” value was -0.302. With RRIRHRPPRLPRPRPRPREHPRP the “shrunken log2 fold change” value was -0.126. In the case of RRIRYRPPRLPRPRPRPLAVPRP, the “shrunken log2 fold change” value is reported as -0.0867. For RRIRCRPPRLPRPRPRPHLQPRP, the “shrunken log2 fold change” value was -0.319. For RRIRNRPPRLPRPRPRPDDYPRP, the “shrunken log2 fold change” value was 0.00129. In the case of RRIRLRPPRLPRPRPRPDECPRP, the “shrunken log2 fold change” value is reported as 0.0277. For RRIRWRPPRLPRPRPRPWKWPRP, the “shrunken log2 fold change” value was -0.0893. With RRIRSRPPRLPRPRPRPIAFPRP the “shrunken log2 fold change” value was -0.388. In the case of RRIRLRPPRLPRPRPRPCQDPRP, the “shrunken log2 fold change” value is reported as 0.0219. RRIRWRPPRLPRPRPRPPTTPRP was tested, and the “shrunken log2 fold change” value was 0.277. For RRIRFRPPRLPRPRPRPNLMPRP, the “shrunken log2 fold change” value was -0.144. In the case of RRIRSRPPRLPRPRPRPFQPPRP, the “shrunken log2 fold change” value is reported as -0.133. For RRIRGRPPRLPRPRPRPFDIPRP, the “shrunken log2 fold change” value was 0.198. In the case of RRIRTRPPRLPRPRPRPKVQPRP, the “shrunken log2 fold change” value is reported as -0.0279. For RRIRERPPRLPRPRPRPLAQPRP, the “shrunken log2 fold change” value was 0.21. For RRIRCRPPRLPRPRPRPYMFPRP, the “shrunken log2 fold change” value was -1.01. With RRIRGRPPRLPRPRPRPTNIPRP the “shrunken log2 fold change” value was 0.298. With RRIRERPPRLPRPRPRPFSIPRP the “shrunken log2 fold change” value was 0.00587. In the case of RRIRWRPPRLPRPRPRPNYGPRP, the “shrunken log2 fold change” value is reported as -0.281. With RRIRCRPPRLPRPRPRPFSGPRP the “shrunken log2 fold change” value was -0.275. With RRIRWRPPRLPRPRPRPMDIPRP the “shrunken log2 fold change” value was -0.175. For RRIRCRPPRLPRPRPRPGEGPRP, the “shrunken log2 fold change” value was -0.0346. With RRIRRRPPRLPRPRPRPCTHPRP the “shrunken log2 fold change” value was 0.176. In the case of RRIRSRPPRLPRPRPRPICCPRP, the “shrunken log2 fold change” value is reported as -0.0929. For RRIRMRPPRLPRPRPRPGEVPRP, the “shrunken log2 fold change” value was 0.884. For RRIRQRPPRLPRPRPRPHFGPRP, the “shrunken log2 fold change” value was -0.0794. In the case of RRIRARPPRLPRPRPRPNVYPRP, the “shrunken log2 fold change” value is reported as -0.115. With RRIRTRPPRLPRPRPRPGKSPRP the “shrunken log2 fold change” value was -0.402. In the case of RRIRCRPPRLPRPRPRPDEMPRP, the “shrunken log2 fold change” value is reported as -0.0197. In the case of RRIRTRPPRLPRPRPRPLFDPRP, the “shrunken log2 fold change” value is reported as -0.451. With RRIRWRPPRLPRPRPRPCDQPRP the “shrunken log2 fold change” value was -0.0328. In the case of RRIRERPPRLPRPRPRPTESPRP, the “shrunken log2 fold change” value is reported as 5.08. With RRIRIRPPRLPRPRPRPLKIPRP the “shrunken log2 fold change” value was 1.44. In the case of RRIRQRPPRLPRPRPRPTIGPRP, the “shrunken log2 fold change” value is reported as 0.0815. In the case of RRIRQRPPRLPRPRPRPICEPRP, the “shrunken log2 fold change” value is reported as 0.0925. With RRIRPRPPRLPRPRPRPPFAPRP the “shrunken log2 fold change” value was 0.647. In the case of RRIRDRPPRLPRPRPRPHKPPRP, the “shrunken log2 fold change” value is reported as -0.000627. With RRIRIRPPRLPRPRPRPCLWPRP the “shrunken log2 fold change” value was 0.0796. In the case of RRIRGRPPRLPRPRPRPMYCPRP, the “shrunken log2 fold change” value is reported as 0.0756. RRIRKRPPRLPRPRPRPGFAPRP was tested, and the “shrunken log2 fold change” value was 0.718. For RRIRHRPPRLPRPRPRPKDMPRP, the “shrunken log2 fold change” value was -0.282. With RRIRGRPPRLPRPRPRPCVQPRP the “shrunken log2 fold change” value was 0.523. With RRIRIRPPRLPRPRPRPVAQPRP the “shrunken log2 fold change” value was -0.103. With RRIRERPPRLPRPRPRPCPVPRP the “shrunken log2 fold change” value was 0.0397. In the case of RRIRKRPPRLPRPRPRPRKRPRP, the “shrunken log2 fold change” value is reported as 1.04. RRIRTRPPRLPRPRPRPPWTPRP was tested, and the “shrunken log2 fold change” value was 0.167. With RRIRERPPRLPRPRPRPNPAPRP the “shrunken log2 fold change” value was 0.0424. With RRIRMRPPRLPRPRPRPRPMPRP the “shrunken log2 fold change” value was 0.935. RRIRIRPPRLPRPRPRPCLYPRP was tested, and the “shrunken log2 fold change” value was -0.248. In the case of RRIRGRPPRLPRPRPRPFQYPRP, the “shrunken log2 fold change” value is reported as 0.105. For RRIRARPPRLPRPRPRPMMCPRP, the “shrunken log2 fold change” value was 0.544. RRIRLRPPRLPRPRPRPSHCPRP was tested, and the “shrunken log2 fold change” value was -0.117. For RRIRWRPPRLPRPRPRPVHEPRP, the “shrunken log2 fold change” value was 0.21. In the case of RRIRFRPPRLPRPRPRPLSGPRP, the “shrunken log2 fold change” value is reported as -0.233. RRIRRRPPRLPRPRPRPRQHPRP was tested, and the “shrunken log2 fold change” value was 0.288. With RRIRNRPPRLPRPRPRPTCCPRP the “shrunken log2 fold change” value was -0.0383. RRIRWRPPRLPRPRPRPMHGPRP was tested, and the “shrunken log2 fold change” value was -0.138. With RRIRVRPPRLPRPRPRPSFYPRP the “shrunken log2 fold change” value was -0.872. With RRIRYRPPRLPRPRPRPWQDPRP the “shrunken log2 fold change” value was -0.122. For RRIRYRPPRLPRPRPRPKWEPRP, the “shrunken log2 fold change” value was -0.263. In the case of RRIRQRPPRLPRPRPRPHWSPRP, the “shrunken log2 fold change” value is reported as -0.161. RRIRYRPPRLPRPRPRPMMEPRP was tested, and the “shrunken log2 fold change” value was -0.141. RRIRTRPPRLPRPRPRPKGIPRP was tested, and the “shrunken log2 fold change” value was 0.0275. RRIRHRPPRLPRPRPRPIGFPRP was tested, and the “shrunken log2 fold change” value was -0.0167. RRIRDRPPRLPRPRPRPCKNPRP was tested, and the “shrunken log2 fold change” value was 0.056. With RRIRYRPPRLPRPRPRPMFHPRP the “shrunken log2 fold change” value was -1.24. In the case of RRIRNRPPRLPRPRPRPDMIPRP, the “shrunken log2 fold change” value is reported as -0.667. In the case of RRIRCRPPRLPRPRPRPHVTPRP, the “shrunken log2 fold change” value is reported as -0.64. In the case of RRIRFRPPRLPRPRPRPKNHPRP, the “shrunken log2 fold change” value is reported as -0.347. With RRIRTRPPRLPRPRPRPAWQPRP the “shrunken log2 fold change” value was -0.0092. For RRIRERPPRLPRPRPRPTRWPRP, the “shrunken log2 fold change” value was 0.353. For RRIRERPPRLPRPRPRPKIMPRP, the “shrunken log2 fold change” value was -1.24. RRIRHRPPRLPRPRPRPHQWPRP was tested, and the “shrunken log2 fold change” value was -0.0218. In the case of RRIRLRPPRLPRPRPRPKVMPRP, the “shrunken log2 fold change” value is reported as -0.044. For RRIRCRPPRLPRPRPRPNDPPRP, the “shrunken log2 fold change” value was 0.0328. In the case of RRIRYRPPRLPRPRPRPRDKPRP, the “shrunken log2 fold change” value is reported as -0.667. In the case of RRIRRRPPRLPRPRPRPLFFPRP, the “shrunken log2 fold change” value is reported as 0.137. RRIRARPPRLPRPRPRPPFWPRP was tested, and the “shrunken log2 fold change” value was 0.914. With RRIRFRPPRLPRPRPRPRFLPRP the “shrunken log2 fold change” value was -0.421. RRIRFRPPRLPRPRPRPIKFPRP was tested, and the “shrunken log2 fold change” value was -0.587. With RRIRRRPPRLPRPRPRPWPMPRP the “shrunken log2 fold change” value was -0.157. For RRIRGRPPRLPRPRPRPPSMPRP, the “shrunken log2 fold change” value was 0.593. RRIRGRPPRLPRPRPRPLHYPRP was tested, and the “shrunken log2 fold change” value was -0.0826. RRIRHRPPRLPRPRPRPCPLPRP was tested, and the “shrunken log2 fold change” value was -0.667. In the case of RRIRIRPPRLPRPRPRPASTPRP, the “shrunken log2 fold change” value is reported as -0.0836. In the case of RRIRERPPRLPRPRPRPEWLPRP, the “shrunken log2 fold change” value is reported as -0.062. For RRIRERPPRLPRPRPRPFFPPRP, the “shrunken log2 fold change” value was -0.241. In the case of RRIRHRPPRLPRPRPRPFVMPRP, the “shrunken log2 fold change” value is reported as -0.281. For RRIRIRPPRLPRPRPRPPFPPRP, the “shrunken log2 fold change” value was 0.141. RRIRCRPPRLPRPRPRPTTPPRP was tested, and the “shrunken log2 fold change” value was 0.227. With RRIRNRPPRLPRPRPRPAYMPRP the “shrunken log2 fold change” value was -0.119. With RRIRNRPPRLPRPRPRPAAQPRP the “shrunken log2 fold change” value was 0.401.
